B1: 4B3 (antibody, IgG4, V domains shown)
VH: QVQLVQSGAEVRKSGASVKVSCKASGYSFTTYDINWVRQATGQGLEWMGWMNPNSGYTDYAQKFQGRVTLTRNMSIDTAYMELSSLRSEDTAVYYCARAYYYDSSAYYLFDYWGQGTLVTVSS
VL: DIQMTQSPSSLSASVGDRVTITCRASQGISNYLAWFQQKPGKAPKSLIYAASSLQSGVPSKFSGSGSGTDFTLTISSLQPEDFATYFCQQYISYPLTFGGGTKVEI
notes: Fully human; also used where no isotype is printed
B2: 12A1 (antibody, IgG4, V domains shown)
VH: QVQLVQSGAEVKRPGASVKVSCKASGYTFTSYGITWVRQAPGQGLEYMGWISTYNGNTDYAQKFQGRVTMTADISTSTAYMELRSLRSDDTAVYYCARERGSYFDYWGQGTLVTVSS
VL: SYELTQPPSVSVSPGQTARITCSGDTLPKKYAYWYQQKSGQAPVLVIYEDIKRPSGIPERFSGSSSGTMATLTISGAQVEDEADYYCFSTDSGGNHKFGGGTKLTVL
notes: as for B1
B3: 17F3 (antibody, IgG2, V domains shown)
VH: QVQLVQSGAEVKKPGASVKVSCKASGYTFTNYGISWVRQAPGQGLEWMGWINAYNGNTNYAQNLQGRVTMTTDTSTNTAYMELRSLRSDDTAVYYCARVAPAAFFDYWDQGTLVTVSS
VL: SYELTQPPSVSVSPGQTASITCSGDKLGDKYVCWYQQKPGQSPVLVIYQDNKRPSGIPERFSGSNSGNTATLIISGTQAMDEADYYCQAWDSSTVFGGGTKLTVL
notes: as for B1

Legend:
[1] = target: DLL4 extracellular domain (R&D systems, catalog #1506-D4/CF) (UniProt Q9NR61 27-529, limits assumed); assay: cell-based or functional assay
DLL4 extracellular domain (R&D systems, catalog #1506-D4/CF), sequence (Q9NR61 27-529 limits assumed): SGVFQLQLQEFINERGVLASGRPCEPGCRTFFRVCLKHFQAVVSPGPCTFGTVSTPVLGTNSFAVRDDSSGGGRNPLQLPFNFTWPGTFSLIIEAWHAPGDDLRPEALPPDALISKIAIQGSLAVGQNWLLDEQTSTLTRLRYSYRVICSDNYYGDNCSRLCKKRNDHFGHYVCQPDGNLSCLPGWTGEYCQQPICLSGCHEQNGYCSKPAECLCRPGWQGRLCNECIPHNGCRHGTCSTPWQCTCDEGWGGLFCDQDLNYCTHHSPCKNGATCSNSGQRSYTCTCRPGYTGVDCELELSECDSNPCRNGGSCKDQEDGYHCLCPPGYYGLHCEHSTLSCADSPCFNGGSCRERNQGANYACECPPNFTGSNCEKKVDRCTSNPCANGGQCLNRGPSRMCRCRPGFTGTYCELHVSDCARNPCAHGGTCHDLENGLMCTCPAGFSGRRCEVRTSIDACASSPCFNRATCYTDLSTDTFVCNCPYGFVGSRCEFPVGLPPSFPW

human Dll1 [2] = target: T1, human Dll1 (human, UniProt O00548 18-723); assay: FACS, 15 µg/ml, 293T cells with human Dll1
T1 construct: whole, on cells
T1 sequence (looked up): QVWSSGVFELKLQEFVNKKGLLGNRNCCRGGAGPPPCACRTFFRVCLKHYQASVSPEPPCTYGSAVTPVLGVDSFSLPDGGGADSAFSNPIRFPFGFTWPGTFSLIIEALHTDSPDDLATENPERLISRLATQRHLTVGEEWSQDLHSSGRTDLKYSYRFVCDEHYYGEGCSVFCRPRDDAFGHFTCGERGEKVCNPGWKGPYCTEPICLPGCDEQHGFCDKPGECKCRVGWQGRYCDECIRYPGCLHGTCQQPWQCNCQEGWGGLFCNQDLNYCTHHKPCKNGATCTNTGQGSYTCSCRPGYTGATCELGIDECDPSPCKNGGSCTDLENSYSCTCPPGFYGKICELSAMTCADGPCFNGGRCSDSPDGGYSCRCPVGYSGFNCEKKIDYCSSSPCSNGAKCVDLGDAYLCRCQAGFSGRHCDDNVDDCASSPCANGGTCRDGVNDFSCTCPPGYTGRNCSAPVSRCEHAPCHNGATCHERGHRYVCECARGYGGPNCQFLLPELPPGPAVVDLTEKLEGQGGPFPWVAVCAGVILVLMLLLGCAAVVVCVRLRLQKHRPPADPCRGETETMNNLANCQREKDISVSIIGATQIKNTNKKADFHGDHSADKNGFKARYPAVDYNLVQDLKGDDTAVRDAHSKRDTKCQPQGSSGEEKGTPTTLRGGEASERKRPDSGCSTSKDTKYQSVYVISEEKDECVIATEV
Protocol: (§1) The ability of the purified antibodies to bind to human Jagged1 and Dll1 was determined by FACS analysis. […] Cells were resuspended in PBS containing 2% FCS and seeded at 50000 cells/well into V-bottomed plates. Anti-DLL4 antibodies diluted in PBS containing 2% FCS were added at a final concentration of 5 or 15 μg/ml and plates were incubated for 1 h at 4° C. […] Data was analyzed by comparing the shift in geometric mean fluorescence in the mock-transfected cells to that observed in the Jagged1- or Dll1-transfected cells and is shown in Tables 16 and 17.

human Jagged1 [3] = target: T2, human Jagged1 (human, UniProt P78504 34-1218); assay: FACS, 5 µg/ml, 293T cells with human Jagged1
T2 construct: whole, on cells
T2 sequence (P78504 34-1218): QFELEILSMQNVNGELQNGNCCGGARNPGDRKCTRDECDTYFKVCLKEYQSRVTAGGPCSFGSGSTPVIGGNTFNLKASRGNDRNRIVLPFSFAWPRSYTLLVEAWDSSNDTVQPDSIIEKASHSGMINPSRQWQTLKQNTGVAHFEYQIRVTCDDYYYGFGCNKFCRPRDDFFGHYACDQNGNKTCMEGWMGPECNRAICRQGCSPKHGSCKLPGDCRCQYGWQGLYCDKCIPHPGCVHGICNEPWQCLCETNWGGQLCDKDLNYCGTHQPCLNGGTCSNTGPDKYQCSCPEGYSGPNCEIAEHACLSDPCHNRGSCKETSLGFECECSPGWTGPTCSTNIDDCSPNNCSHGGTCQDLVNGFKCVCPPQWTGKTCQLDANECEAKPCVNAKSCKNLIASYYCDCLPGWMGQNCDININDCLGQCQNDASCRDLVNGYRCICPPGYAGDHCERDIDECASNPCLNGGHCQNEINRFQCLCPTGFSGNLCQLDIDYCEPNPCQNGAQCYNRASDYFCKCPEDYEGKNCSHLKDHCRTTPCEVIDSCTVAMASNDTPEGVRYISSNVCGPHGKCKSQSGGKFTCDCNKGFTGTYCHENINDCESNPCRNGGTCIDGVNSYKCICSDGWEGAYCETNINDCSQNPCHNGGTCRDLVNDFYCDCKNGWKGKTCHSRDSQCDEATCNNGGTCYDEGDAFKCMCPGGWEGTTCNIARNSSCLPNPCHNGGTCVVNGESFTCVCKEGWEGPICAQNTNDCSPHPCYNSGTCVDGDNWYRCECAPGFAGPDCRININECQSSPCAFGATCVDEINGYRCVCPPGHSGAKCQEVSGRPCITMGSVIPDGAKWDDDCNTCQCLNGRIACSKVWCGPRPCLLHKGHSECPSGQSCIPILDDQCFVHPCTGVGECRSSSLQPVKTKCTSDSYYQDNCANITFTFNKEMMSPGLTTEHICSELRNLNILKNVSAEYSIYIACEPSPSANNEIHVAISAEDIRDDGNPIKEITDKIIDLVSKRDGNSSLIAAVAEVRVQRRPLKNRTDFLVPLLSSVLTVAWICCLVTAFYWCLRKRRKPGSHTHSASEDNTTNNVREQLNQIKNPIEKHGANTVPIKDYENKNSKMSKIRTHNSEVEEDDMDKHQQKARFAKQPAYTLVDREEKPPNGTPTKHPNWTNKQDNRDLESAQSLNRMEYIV
Protocol: as §1

human Dll1 [4] = target: T1, human Dll1; assay: FACS, 15 µg/ml, 293T cells with human Dll1 vs mock
Protocol: as §1

human Jagged1 [5] = target: T2, human Jagged1; assay: FACS, 5 µg/ml, 293T cells with human Jagged1 vs mock
Protocol: as §1

full length human DLL4 [6] = target: T3, full length human DLL4 (human, UniProt Q9NR61 27-685); assay: FMAT, hybridoma supernatant, 293T cells with human DLL4
T3 construct: whole, on cells; also called native DLL4 expressed in HEK293 cells
T3 sequence (Q9NR61 27-685): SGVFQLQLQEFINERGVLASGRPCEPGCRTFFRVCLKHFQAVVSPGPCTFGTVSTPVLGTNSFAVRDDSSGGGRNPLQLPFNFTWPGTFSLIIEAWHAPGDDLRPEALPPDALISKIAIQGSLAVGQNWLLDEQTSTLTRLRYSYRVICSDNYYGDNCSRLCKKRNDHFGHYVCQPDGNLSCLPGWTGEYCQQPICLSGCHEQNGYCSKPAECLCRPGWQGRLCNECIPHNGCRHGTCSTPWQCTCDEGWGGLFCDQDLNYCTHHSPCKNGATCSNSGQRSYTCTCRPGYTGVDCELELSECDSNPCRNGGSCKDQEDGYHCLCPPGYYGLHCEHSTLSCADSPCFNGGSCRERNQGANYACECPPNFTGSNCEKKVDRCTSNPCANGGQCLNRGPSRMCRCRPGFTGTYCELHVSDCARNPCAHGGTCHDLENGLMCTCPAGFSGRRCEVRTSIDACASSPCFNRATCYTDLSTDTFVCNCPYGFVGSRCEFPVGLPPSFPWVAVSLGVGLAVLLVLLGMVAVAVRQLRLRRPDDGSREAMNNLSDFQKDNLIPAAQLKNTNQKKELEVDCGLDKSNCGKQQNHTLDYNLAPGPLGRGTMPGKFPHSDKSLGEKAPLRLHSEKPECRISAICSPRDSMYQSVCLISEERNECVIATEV
Protocol: (§2) Cells diluted in PBS containing 2% FBS were seeded at a density of 3000 expressing and 15000 mock transfected cells per well in 384 well plates (Corning Costar, catalog #3712). Immediately after plating, 15 or 20 μl/well of hybridoma supernatants and 10 μl/well of secondary antibody (Goat anti-human IgG Fc Cy5, final concentration 750 ng/ml) were added and plates incubated for 3 h at room temperature prior to reading the fluorescence on the FMAT 8200 instrument (Applied Biosystems). The binding of human Notch1/Fc chimera (R&D systems, catalog #3647-TK), diluted 1:2 from 2.86 μg/ml was used as a positive control for DLL4 and human Notch3/Fc chimera diluted from 10 μg/ml was used a positive control for binding to Jagged1. Results for 12 hybridoma supernatants showing binding of hybridoma supernatants to human/cynomolgus monkey DLL4 and human Jagged are shown in Table 3.

human Jagged1 [7] = target: T2, human Jagged1; assay: FMAT, hybridoma supernatant, 293T cells with human Jagged1
Protocol: as §2

full length human DLL4 [8] = target: T3, full length human DLL4; assay: FMAT competition, supernatant vs Alexa-647 human Notch1/Fc, 293T cells with human DLL4
Protocol: Transfected and untransfected 239T cells were reconstituted in PBS containing 2% FCS and 5000 transfected and 17500 non-transfected cells were plated in 20 μl into wells of a 384-well tissue culture plate (Corning Costar, catalog #3712). Subsequently, 20 μl of hybridoma supernatant was added and plates were incubated at 4° C. for 1 h, at which time 20 μl of Alexa-647 labeled human Notch1/Fc was added at a final concentration of 6.7 ng/ml. After a further 3 h incubation at 4° C., the amount of bound Notch1/Fc was determined by reading the fluorescence in each well using an FMAT 8200 instrument (Applied Biosystems). Results are expressed as % inhibitions with the minimum inhibition in the assay being determined by the effects of non-DLL4 binding supernatants prepared in a similar way as described in example 2, and the maximum inhibition being defined as the signal obtained in the presence of a saturating concentration of unlabeled Notch1/Fc. N.T.=not tested

full length human DLL4 [9] = target: T3, full length human DLL4; assay: FMAT competition, purified antibody vs Alexa-647 human Notch1/Fc, 293T cells with human DLL4
Protocol: To discriminate between the purified antibodies based upon their ability to prevent the interaction between full-length recombinant DLL4 and soluble Notch1/Fc, the following assays were performed. Transfected and untransfected 239T cells were reconstituted in PBS containing 2% FCS and 5000 transfected and 17500 non-transfected cells were plated in 30 μl into wells of a 384-well tissue culture plate (Corning Costar, catalog #3712). Subsequently, 30 μl of purified antibodies, serial diluted from 5 μg/ml hybridoma supernatant was added and plates were incubated at 4° C. for 1 h, at which time 20 μl of 100 ng/ml Alexa-647 labeled human Notch1/Fc was added. After a further 3 h incubation at 4° C., the amount of bound Notch1/Fc was determined by reading the fluorescence in each well using an FMAT 8200 instrument (Applied Biosystems).

Binder	% inhibition 1 µg/ml, AVERAGE (HUVEC proliferation on coated DLL4) [1]	% inhibition 1 µg/ml, N = 1 (HUVEC proliferation on coated DLL4) [1]	% inhibition 1 µg/ml, N = 2 (HUVEC proliferation on coated DLL4) [1]	% inhibition 10 µg/ml, AVERAGE (HUVEC proliferation on coated DLL4) [1]	% inhibition 10 µg/ml, N = 1 (HUVEC proliferation on coated DLL4) [1]	% inhibition 10 µg/ml, N = 2 (HUVEC proliferation on coated DLL4) [1]	Dll1/293T X Geo mean (human Dll1 [2])	Jagged1/293T X Geo mean (human Jagged1 [3])	Dll1/mock ratio (human Dll1 [4])	Jagged1/mock ratio (human Jagged1 [5])	Count (full length human DLL4 [6])	FL1 (full length human DLL4 [6])	FL1 x count (full length human DLL4 [6])	Count (human Jagged1 [7])	FL1 (human Jagged1 [7])	FL1 x count (human Jagged1 [7])	% inhibition n = 2 (full length human DLL4 [8])	% inhibition n = 3 (full length human DLL4 [8])	Mean % inhibition (full length human DLL4 [8])	% inhibition at 0.020 nM (full length human DLL4 [9])	other results
B1	31%	20%	41%	44%	38%	49%	30.6	18.7	1.17	1.04	206	11000	2.27e+06	2	4720	9450	145%	147%	133%	-1%	% inhibition n = 1 (full length human DLL4 [8]): 106%; % inhibition at 0.070 nM (full length human DLL4 [9]): 5%; % inhibition at 0.21 nM (full length human DLL4 [9]): -3%; % inhibition at 0.62 nM (full length human DLL4 [9]): 20%; % inhibition at 1.9 nM (full length human DLL4 [9]): 40%; % inhibition at 5.6 nM (full length human DLL4 [9]): 89%; % inhibition at 16.7 nM (full length human DLL4 [9]): 117%; IC50 (full length human DLL4 [9]): 3.33 nM
B2	56%	50%	62%	74%	62%	85%	47	14.4	1.12	1.11	179	9520	1.76e+06	25	988	24700	147%	144%	131%	6%	% inhibition n = 1 (full length human DLL4 [8]): 103%; % inhibition at 0.070 nM (full length human DLL4 [9]): -18%; % inhibition at 0.21 nM (full length human DLL4 [9]): 9%; % inhibition at 0.62 nM (full length human DLL4 [9]): 15%; % inhibition at 1.9 nM (full length human DLL4 [9]): 88%; % inhibition at 5.6 nM (full length human DLL4 [9]): 119%; % inhibition at 16.7 nM (full length human DLL4 [9]): 101%; IC50 (full length human DLL4 [9]): 1.48 nM
B3	30%	24%	35%	52%	48%	56%	47	16.3	1.14	1.08	219	11300	2.47e+06	30	1440	43100	108%	131%	120%	14%	% inhibition at 0.070 nM (full length human DLL4 [9]): 25%; % inhibition at 0.21 nM (full length human DLL4 [9]): 14%; % inhibition at 0.62 nM (full length human DLL4 [9]): 29%; % inhibition at 1.9 nM (full length human DLL4 [9]): 69%; % inhibition at 5.6 nM (full length human DLL4 [9]): 121%; % inhibition at 16.7 nM (full length human DLL4 [9]): 115%; IC50 (full length human DLL4 [9]): 1.81 nM
